Source: PMC6843132, “The Plant NF-Y DNA Matrix In Vitro and In Vivo”

Key:
[1] = biological target: T1, AtNF-YA6;AtNF-YB2;AtNF-YC3 (Arabidopsis thaliana;Arabidopsis …, UniProt Q9LVJ7;Q9FGJ3;Q9ZVL3 170-237;24-116;55-148, ||); assay: EMSA; 12 mM Tris-HCl pH 8.0, 50 mM NaCl, 50 mM KCl, 5 mM MgCl2, 0.5 mM EDTA, 12% glycerol, 0.2 mg/mL BSA, 2.5 mM DTT, 100 ng poly(dA:dT), 20 nM Cy5 probe, 30 C 30 min; 6% PAGE in 0.25X TBE; details: protein: recombinant;recombinant;recombinant; tags: 6His;6His removed by thrombin;; copies: 1;1;1; label: Cy5 5'
T1 sequence (Q9LVJ7 170-237, chain 1 of 3): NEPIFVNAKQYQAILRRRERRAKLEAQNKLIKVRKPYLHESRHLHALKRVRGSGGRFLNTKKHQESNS
T1 sequence (Q9FGJ3 24-116, chain 2 of 3): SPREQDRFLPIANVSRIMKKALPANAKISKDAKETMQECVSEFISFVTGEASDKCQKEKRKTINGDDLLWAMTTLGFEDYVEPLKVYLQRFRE
T1 sequence (Q9ZVL3 55-148, chain 3 of 3): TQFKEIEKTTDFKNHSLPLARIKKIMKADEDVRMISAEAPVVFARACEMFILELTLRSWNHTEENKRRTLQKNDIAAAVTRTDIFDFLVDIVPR

[2] = biological target: AtNF-YA2;AtNF-YB2;AtNF-YC3 (Arabidopsis thaliana;Arabidopsis …, UniProt Q9M9X4;Q9FGJ3;Q9ZVL3 134-207;24-116;55-148, ||); assay: EMSA; efficiency similar to NF-YA6 trimer; 12 mM Tris-HCl pH 8.0, 50 mM NaCl, 50 mM KCl, 5 mM MgCl2, 0.5 mM EDTA, 12% glycerol, 0.2 mg/mL BSA, 2.5 mM DTT, 100 ng poly(dA:dT), 20 nM Cy5 probe, 30 C 30 min; 6% PAGE in 0.25X TBE; details: protein: recombinant;recombinant;recombinant; tags: 6His;6His removed by thrombin;; copies: 1;1;1; label: Cy5 5'
AtNF-YA2;AtNF-YB2;AtNF-YC3, sequence (Q9M9X4 134-207, chain 1 of 3): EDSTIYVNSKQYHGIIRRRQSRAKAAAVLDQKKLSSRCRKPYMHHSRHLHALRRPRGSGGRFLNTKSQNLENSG
AtNF-YA2;AtNF-YB2;AtNF-YC3, sequence (Q9FGJ3 24-116, chain 2 of 3): as the sequence (Q9FGJ3 24-116, chain 2 of 3) above
AtNF-YA2;AtNF-YB2;AtNF-YC3, sequence (Q9ZVL3 55-148, chain 3 of 3): as the sequence (Q9ZVL3 55-148, chain 3 of 3) above

[3] = biological target: T1, AtNF-YA6;AtNF-YB2;AtNF-YC3; assay: competition EMSA; better than WT; 12 mM Tris-HCl pH 8.0, 50 mM NaCl, 50 mM KCl, 5 mM MgCl2, 0.5 mM EDTA, 12% glycerol, 0.2 mg/mL BSA, 2.5 mM DTT, 100 ng poly(dA:dT), 20 nM Cy5 probe, 30 C 30 min; 6% PAGE in 0.25X TBE; details: protein: recombinant;recombinant;recombinant; tags: 6His;6His removed by thrombin;; copies: 1;1;1
[4] = biological target: T1, AtNF-YA6;AtNF-YB2;AtNF-YC3; assay: competition EMSA; similar rates, WT A least preferred; 12 mM Tris-HCl pH 8.0, 50 mM NaCl, 50 mM KCl, 5 mM MgCl2, 0.5 mM EDTA, 12% glycerol, 0.2 mg/mL BSA, 2.5 mM DTT, 100 ng poly(dA:dT), 20 nM Cy5 probe, 30 C 30 min; 6% PAGE in 0.25X TBE; details: protein: recombinant;recombinant;recombinant; tags: 6His;6His removed by thrombin;; copies: 1;1;1
[5] = biological target: T1, AtNF-YA6;AtNF-YB2;AtNF-YC3; assay: competition EMSA; equal to WT; 12 mM Tris-HCl pH 8.0, 50 mM NaCl, 50 mM KCl, 5 mM MgCl2, 0.5 mM EDTA, 12% glycerol, 0.2 mg/mL BSA, 2.5 mM DTT, 100 ng poly(dA:dT), 20 nM Cy5 probe, 30 C 30 min; 6% PAGE in 0.25X TBE; details: protein: recombinant;recombinant;recombinant; tags: 6His;6His removed by thrombin;; copies: 1;1;1
[6] = biological target: T1, AtNF-YA6;AtNF-YB2;AtNF-YC3; assay: competition EMSA; preferred over WT; 12 mM Tris-HCl pH 8.0, 50 mM NaCl, 50 mM KCl, 5 mM MgCl2, 0.5 mM EDTA, 12% glycerol, 0.2 mg/mL BSA, 2.5 mM DTT, 100 ng poly(dA:dT), 20 nM Cy5 probe, 30 C 30 min; 6% PAGE in 0.25X TBE; details: protein: recombinant;recombinant;recombinant; tags: 6His;6His removed by thrombin;; copies: 1;1;1
[7] = biological target: T1, AtNF-YA6;AtNF-YB2;AtNF-YC3; assay: competition EMSA; purines preferred at +2; 12 mM Tris-HCl pH 8.0, 50 mM NaCl, 50 mM KCl, 5 mM MgCl2, 0.5 mM EDTA, 12% glycerol, 0.2 mg/mL BSA, 2.5 mM DTT, 100 ng poly(dA:dT), 20 nM Cy5 probe, 30 C 30 min; 6% PAGE in 0.25X TBE; details: protein: recombinant;recombinant;recombinant; tags: 6His;6His removed by thrombin;; copies: 1;1;1
[8] = biological target: T1, AtNF-YA6;AtNF-YB2;AtNF-YC3; assay: competition EMSA; higher affinity; 12 mM Tris-HCl pH 8.0, 50 mM NaCl, 50 mM KCl, 5 mM MgCl2, 0.5 mM EDTA, 12% glycerol, 0.2 mg/mL BSA, 2.5 mM DTT, 100 ng poly(dA:dT), 20 nM Cy5 probe, 30 C 30 min; 6% PAGE in 0.25X TBE; details: protein: recombinant;recombinant;recombinant; tags: 6His;6His removed by thrombin;; copies: 1;1;1
[9] = biological target: T1, AtNF-YA6;AtNF-YB2;AtNF-YC3; assay: competition EMSA; highest affinity at -3; 12 mM Tris-HCl pH 8.0, 50 mM NaCl, 50 mM KCl, 5 mM MgCl2, 0.5 mM EDTA, 12% glycerol, 0.2 mg/mL BSA, 2.5 mM DTT, 100 ng poly(dA:dT), 20 nM Cy5 probe, 30 C 30 min; 6% PAGE in 0.25X TBE; details: protein: recombinant;recombinant;recombinant; tags: 6His;6His removed by thrombin;; copies: 1;1;1
[10] = biological target: T1, AtNF-YA6;AtNF-YB2;AtNF-YC3; assay: competition EMSA; 12 mM Tris-HCl pH 8.0, 50 mM NaCl, 50 mM KCl, 5 mM MgCl2, 0.5 mM EDTA, 12% glycerol, 0.2 mg/mL BSA, 2.5 mM DTT, 100 ng poly(dA:dT), 20 nM Cy5 probe, 30 C 30 min; 6% PAGE in 0.25X TBE; details: protein: recombinant;recombinant;recombinant; tags: 6His;6His removed by thrombin;; copies: 1;1;1

B1: CAB2 (-65) CCAAT 31 bp probe (dsDNA)
DNA 1: CTTAAAATCCAATGAATGAACAGATAAAGAT
DNA 2: ATCTTTATCTGTTCATTCATTGGATTTTAAG
**Q.** Does B1 bind [1]?
**A.** binds

**Q.** Does B1 bind [2]?
**A.** binds

B2: CAB2 A6G (dsDNA)
DNA 1: CTTAAAGTCCAATGAATGAACAGATAAAGAT
DNA 2: ATCTTTATCTGTTCATTCATTGGACTTTAAG
**Q.** Does B2 bind [3]?
**A.** binds

B3: CAB2 A15C (dsDNA)
DNA 1: CTTAAAATCCAATGACTGAACAGATAAAGAT
DNA 2: ATCTTTATCTGTTCAGTCATTGGATTTTAAG
**Q.** Does B3 bind [4]?
**A.** binds

B4: CAB2 A15G (dsDNA)
DNA 1: CTTAAAATCCAATGAGTGAACAGATAAAGAT
DNA 2: ATCTTTATCTGTTCACTCATTGGATTTTAAG
**Q.** Does B4 bind [4]?
**A.** binds

B5: CAB2 A6T (dsDNA)
DNA 1: CTTAAATTCCAATGAATGAACAGATAAAGAT
DNA 2: ATCTTTATCTGTTCATTCATTGGAATTTAAG
**Q.** Does B5 bind [5]?
**A.** binds

B6: CAB2 G13C (dsDNA)
DNA 1: CTTAAAATCCAATCAATGAACAGATAAAGAT
DNA 2: ATCTTTATCTGTTCATTGATTGGATTTTAAG
**Q.** Does B6 bind [6]?
**A.** binds

B7: CAB2 A15T (dsDNA)
DNA 1: CTTAAAATCCAATGATTGAACAGATAAAGAT
DNA 2: ATCTTTATCTGTTCAATCATTGGATTTTAAG
**Q.** Does B7 bind [4]?
**A.** binds

B8: CAB2 A14G (dsDNA)
DNA 1: CTTAAAATCCAATGGATGAACAGATAAAGAT
DNA 2: ATCTTTATCTGTTCATCCATTGGATTTTAAG
**Q.** Does B8 bind [7]?
**A.** binds

B9: CAB2 T16A (dsDNA)
DNA 1: CTTAAAATCCAATGAAAGAACAGATAAAGAT
DNA 2: ATCTTTATCTGTTCTTTCATTGGATTTTAAG
**Q.** Does B9 bind [8]?
**A.** binds

B10: CAB2 T7G (dsDNA)
DNA 1: CTTAAAAGCCAATGAATGAACAGATAAAGAT
DNA 2: ATCTTTATCTGTTCATTCATTGGCTTTTAAG
**Q.** Does B10 bind [6]?
**A.** binds

B11: CAB2 A5T (dsDNA)
DNA 1: CTTAATATCCAATGAATGAACAGATAAAGAT
DNA 2: ATCTTTATCTGTTCATTCATTGGATATTAAG
**Q.** Does B11 bind [9]?
**A.** binds

B12: CAB2 A6C (dsDNA)
DNA 1: CTTAAACTCCAATGAATGAACAGATAAAGAT
DNA 2: ATCTTTATCTGTTCATTCATTGGAGTTTAAG
**Q.** Does B12 bind [3]?
**A.** binds

B13: CAB2 WT competitor 31 bp (dsDNA)
DNA 1: CTTAAAATCCAATGAATGAACAGATAAAGAT
DNA 2: ATCTTTATCTGTTCATTCATTGGATTTTAAG
**Q.** Does B13 bind [10]?
**A.** binds

B14: CAB2 T7A (dsDNA)
DNA 1: CTTAAAAACCAATGAATGAACAGATAAAGAT
DNA 2: ATCTTTATCTGTTCATTCATTGGTTTTTAAG
**Q.** Does B14 bind [6]?
**A.** binds
